Earlier results, collected in article PMC9776395.

Target: His193 (UniProt position 193, WVLGEHGDSSV)
Assay: kinetics
Details: Enzyme-NADH complex binding pyruvate (pyruvate reduction direction)

In the case of “L-lactate dehydrogenase A chain (LDHA, M subunit, LDH5 homotetramer) (Homo sapiens)”, the pKa is listed as 7.31.
